The results in this text go back to patent US8084213, “Selection” (Domantis Limited).

Series [1] deals with T1, Vk(E5)-scArc-HA (Phage P22 / human Vk). As to the kind of experiment: recovery reaches plateau at 3-4 operators. To be noted: tags: N-terminal Vk(E5) dAb fusion, C-terminal HA; chain copies: 2 scArc per operator (stated). How it is done: (§1) Tubes from Strep Thermofast 96-well plates are coated by applying 2 µl of 0.05 mg/ml biotinylated rat anti-HA mAb (clone 3F10, Roche), 0.2 µl of 0.5 mg/ml biotinylated protein L (Pierce), 1 µl of biotinylated 1 mg/ml β-galactosidase or 0.1 µl of 5 mg/ml biotinylated BSA (Sigma) respectively in 50 µl aliquots of PBS and incubating for 3 hours at room temperature. The monoclonal high-affinity α-HA mAb 3F10 recognises the C-terminal HA tag, β-galactosidase and protein L can be expected to interact with the $V_\kappa$(E5) light chain domain, while BSA serves as the negative control. At the end of the incubation the coating solution is removed and the first blocking solution consisting of 150 µl of 10 ng/ml biotinylated BSA (Sigma) in PBS is added to the wells and incubated for 15 minutes. At the end of the incubation the wells are washed three times with 150 µl of PBS and blocked additionally for 30 min at room temperature with buffer C+.
(§2) 25 µl S30 in vitro translation reactions (EcoPro T7, Novagen) are assembled according to the manufacturer's instructions and supplemented with 1.5 µl of 1.7 mM PCR-amplified template in 0.1 mg/ml RNA and 0.75 µl of 100 mM oxidized glutathione. […]
(§3) The PCR amplification products are analysed by 1% agarose gel electrophoresis in TAE in the presence of ethidium bromide and imaged using GeneGeius Bio Imaging System (Syngene). […]

For series [2], the target named is T2, scArc-Vk(E5)-HA (Phage P22 / human Vk). Put plainly: plateau at 3-4 operators. The conditions noted are these: tags: C-terminal Vk(E5) dAb fusion, chain copies: 2 scArc per operator (stated). How it is done: as §1, §2, §3
Series [3] concerns the target scFv(31IJ1)-(KEAAA)6-scArc-HA (Phage P22 / human scFv?). As to the kind of experiment: recovery improves with operator number. To be noted: tags: N-terminal scFv fusion, C-terminal HA; chain copies: 2 scArc per operator (inferred). How it is done:
In the solution expression experiments 3 µl of 1.7 nM PCR-amplified pIE7aA, pIE7a2A, pIE7a3A, pIE7a4A, pIE7aA-scFv(31IJ1), pIE7a2A-scFv(31 Ul), pIE7a3A-scFv (31IJ1) or pIE7a4A-scFv(31IJ1) template in 0.2 mg/ml tRNA is added to 25 µl EcoPro T7 in vitro translation mix (Novagen), supplemented with 0.75 µl of 100 mM oxidized glutathione (Sigma) and 0.25 µl […] 3F10 αHA mAb (Roche). Each reactions is split into three 9 µl aliquots. Two of the three in vitro translation aliquots of pIE7aA-scFv(31IJ1), pIE7a2A-scFv(31IJ1), pIE7a3A-scFv(31IJ1) or pIE-7a4A-scFv(31IJ1) are immediately combined with the aliquots of pIE7aA, pIE7a2A, pIE7a3A or pIE7a4A expression reactions respectively, one before and the other after the four-hour incubation at 25° C.
During the translation reaction the streptavidin-coated PCR tubes, cut from Strep Thermofast 96-well plates (Abgene), are first incubated at room temperature for three hours with 50 µl of at least 40 nM biotinylated protein A (Sigma), protein L (Pierce) fluorescein (Molecular Probes) of BSA (Sigma) in PBS. The coating buffer is thereafter removed and any remaining free biotin-binding sites are blocked with a 15 min pulse of 50 µg/ml biotinylated BSA in PBS. The pre-coated wells are thereafter three times washed with PBS and then filled with 100 µl of binding buffer C+ (100 mM KCl, 20 mM Tris, 5 mM MgCl2, 0.05% Tween 20, 0.05 mM EDTA, 1% BSA).
Upon completion of the translation reaction the products are diluted in Buffer C+ and applied to the pre-coated and blocked PCR tubes, allowed to bind for 30 min at room temperature and washed 4 times with 150 µl of Buffer C+. The retained genetic elements are amplified with PCR using a nested set of primers AS79/AS80 and a 30-cycle PCR protocol 30X60C2M. In 30X60C2M protocol 50 µl PCR reactions contain 200 µM each of dATP dTTP dGTP dCTP (Amersham), 300 nM forward and reverse primers AS13+ AS19 and 1 U of SuperTaq DNA polymerase (HT Biotechnology) in 1× polymerase Buffer (HT Biotechnology). […]

Series [4] has as its target T2, scArc-Vk(E5)-HA. Put plainly: stable linkage even without anti-HA mAb. The conditions noted are these: tags: C-terminal Vk(E5) dAb fusion, chain copies: 2 scArc per operator (stated).
For series [5], the target named is T1, Vk(E5)-scArc-HA. Put plainly: recovery increases with operator number; complex stabilised by 3.4 nM anti-HA mAb 3F10. The conditions noted are these: tags: N-terminal Vk(E5) dAb fusion, C-terminal HA; chain copies: 2 scArc per operator (stated).

B1: genetic element with three Arc operators (dsDNA)
DNA 1: GATCTATGATAGAAGCACTCTACTATACTCATCACGAAACGGAGGATCTATGATAGAAGCACTCTACTATACTCATCACGAAACGGAGGATCTATGATAGAAGCACTCTACTAT
DNA 2: ATAGTAGAGTGCTTCTATCATAGATCCTCCGTTTCGTGATGAGTATAGTAGAGTGCTTCTATCATAGATCCTCCGTTTCGTGATGAGTATAGTAGAGTGCTTCTATCATAGATC
For the molecule B1, the binding result (with Vk(E5)-scArc-HA [1]; with scArc-Vk(E5)-HA [2]; in series [3]) was “binds” throughout.

B2: genetic element with two Arc operators (dsDNA)
DNA 1: GATCTATGATAGAAGCACTCTACTATACTCATCACGAAACGGAGGATCTATGATAGAAGCACTCTACTAT
DNA 2: ATAGTAGAGTGCTTCTATCATAGATCCTCCGTTTCGTGATGAGTATAGTAGAGTGCTTCTATCATAGATC
In the case of B2, the binding result (in the series with scArc-Vk(E5)-HA [4]; in series [3]; in the series with Vk(E5)-scArc-HA [5]) was “binds” each time.

B3: genetic element with four Arc operators (dsDNA)
DNA 1: GATCTATGATAGAAGCACTCTACTATACTCATCACGAAACGGAGGATCTATGATAGAAGCACTCTACTATACTCATCACGAAACGGAGGATCTATGATAGAAGCACTCTACTATACTCATCACGAAACGGAGGATCTATGATAGAAGCACTCTACTAT
DNA 2: ATAGTAGAGTGCTTCTATCATAGATCCTCCGTTTCGTGATGAGTATAGTAGAGTGCTTCTATCATAGATCCTCCGTTTCGTGATGAGTATAGTAGAGTGCTTCTATCATAGATCCTCCGTTTCGTGATGAGTATAGTAGAGTGCTTCTATCATAGATC
Regarding B3, the binding result in series [3] is given as “binds”.
